The values that follow come from patent publication US20090228996A1, “Means and Methods for influencing Interactions Between Dc-Sign and Dc-Sign Ligands” (priority 2006, published 2009).

The labels stand for the following.
T1: DC-SIGN on Raji-DC-SIGN cells (Homo sapiens, UniProt Q9NNX6)
T1 construct: expressed in transfected cells; host or cells: Raji cells (Raji-DC-SIGN)
T1 sequence (Q9NNX6 1-404): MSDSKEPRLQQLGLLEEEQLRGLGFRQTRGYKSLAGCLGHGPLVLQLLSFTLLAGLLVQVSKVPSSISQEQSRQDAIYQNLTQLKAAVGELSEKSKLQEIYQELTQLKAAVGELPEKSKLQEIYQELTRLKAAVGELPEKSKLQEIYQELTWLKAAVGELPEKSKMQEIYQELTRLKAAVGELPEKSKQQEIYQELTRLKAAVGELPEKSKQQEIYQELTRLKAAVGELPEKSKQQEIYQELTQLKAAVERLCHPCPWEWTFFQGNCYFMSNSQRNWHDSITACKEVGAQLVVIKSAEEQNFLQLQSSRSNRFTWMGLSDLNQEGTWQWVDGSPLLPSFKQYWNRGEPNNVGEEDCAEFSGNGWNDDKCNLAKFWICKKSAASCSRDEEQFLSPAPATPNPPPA

T2: DC-SIGN on iDCs (Homo sapiens, UniProt Q9NNX6)
T2 construct: endogenous in cells
T2 sequence (Q9NNX6 1-404): T1 sequence (Q9NNX6 1-404)

T3: DC-SIGN-Fc (Homo sapiens, UniProt Q9NNX6)
T3 construct: the extracellular portion of DC-SIGN (amino acids 64 to 404)
T3 sequence (Q9NNX6 64-404): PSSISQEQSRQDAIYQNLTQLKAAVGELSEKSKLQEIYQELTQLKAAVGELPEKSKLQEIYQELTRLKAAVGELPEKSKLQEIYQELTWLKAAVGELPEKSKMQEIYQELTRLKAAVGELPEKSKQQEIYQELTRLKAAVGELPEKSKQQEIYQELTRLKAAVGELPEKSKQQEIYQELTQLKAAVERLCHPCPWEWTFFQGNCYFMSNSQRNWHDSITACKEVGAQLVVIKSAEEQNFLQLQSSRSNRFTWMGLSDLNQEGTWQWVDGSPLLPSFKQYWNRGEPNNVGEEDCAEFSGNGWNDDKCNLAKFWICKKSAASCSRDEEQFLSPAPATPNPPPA

T4: DC-SIGN (Homo sapiens, UniProt Q9NNX6)
T4 sequence (Q9NNX6 1-404): T1 sequence (Q9NNX6 1-404)

B1: human SLPI: human milk protein SLPI (Sigma) (protein, UniProt P03973 26-132, looked up)
Antileukoproteinase: SGKSFKAGVCPPKKSAQCLRYKKPECQSDWQCPGKKRCCPDTCGIKCLDPVDTPNPTRRKPGKCPVTYGQCLMLNPPNFCEMDGQCKRDLKCCMGMCGKSCVSPVKA
B2: human lactoferrin: major human milk protein (Sigma-Aldrich) (protein, UniProt P02788 20-710, looked up)
Lactotransferrin: GRRRSVQWCAVSQPEATKCFQWQRNMRKVRGPPVSCIKRDSPIQCIQAIAENRADAVTLDGGFIYEAGLAPYKLRPVAAEVYGTERQPRTHYYAVAVVKKGGSFQLNELQGLKSCHTGLRRTAGWNVPIGTLRPFLNWTGPPEPIEAAVARFFSASCVPGADKGQFPNLCRLCAGTGENKCAFSSQEPYFSYSGAFKCLRDGAGDVAFIRESTVFEDLSDEAERDEYELLCPDNTRKPVDKFKDCHLARVPSHAVVARSVNGKEDAIWNLLRQAQEKFGKDKSPKFQLFGSPSGQKDLLFKDSAIGFSRVPPRIDSGLYLGSGYFTAIQNLRKSEEEVAARRARVVWCAVGEQELRKCNQWSGLSEGSVTCSSASTTEDCIALVLKGEADAMSLDGGYVYTAGKCGLVPVLAENYKSQQSSDPDPNCVDRPVEGYLAVAVVRRSDTSLTWNSVKGKKSCHTAVDRTAGWNIPMGLLFNQTGSCKFDEYFSQSCAPGSDPRSNLCALCIGDEQGENKCVPNSNERYYGYTGAFRCLAENAGDVAFVKDVTVLQNTDGNNNEAWAKDLKLADFALLCLDGKRKPVTEARSCHLAMAPNHAVVSRMDKVERLKQVLLHQQAKFGRNGSDCPDKFCLFQSETKNLLFNDNTECLARLHGKTTYEKYLGPQYVAGITNLKKCSTSPLLEACEFLRK
B3: human α-lactalbumin: major human milk protein (Sigma) (protein, UniProt P00709 20-142, looked up)
Alpha-lactalbumin: KQFTKCELSQLLKDIDGYGGIALPELICTMFHTSGYDTQAIVENNESTEYGLFQISNKLWCKSSQVPQSRNICDISCDKFLDDDITDDIMCAKKILDIKGIDYWLAHKALCTEKLEQWLCEKL
B4: bovine β-casein: milk protein (NIZO Food Research) (protein, UniProt P02666 16-224, looked up)
Beta-casein: RELEELNVPGEIVESLSSSEESITRINKKIEKFQSEEQQQTEDELQDKIHPFAQTQSLVYPFPGPIPNSLPQNIPPLTQTPVVVPPFLQPEVMGVSKVKEAMAPKHKEMPFPKYPVEPFTESQSLTLTDVENLHLPLPLLQSWMHQPHQPLPPTVMFPPQSVLSLSQSKVLPVPQKAVPYPQRDMPIQAFLLYQEPVLGPVRGPFPIIV
B5: bovine lactoferrin: control protein previously shown to bind DC-SIGN (protein, UniProt P24627 20-708, looked up)
Lactotransferrin: APRKNVRWCTISQPEWFKCRRWQWRMKKLGAPSITCVRRAFALECIRAIAEKKADAVTLDGGMVFEAGRDPYKLRPVAAEIYGTKESPQTHYYAVAVVKKGSNFQLDQLQGRKSCHTGLGRSAGWIIPMGILRPYLSWTESLEPLQGAVAKFFSASCVPCIDRQAYPNLCQLCKGEGENQCACSSREPYFGYSGAFKCLQDGAGDVAFVKETTVFENLPEKADRDQYELLCLNNSRAPVDAFKECHLAQVPSHAVVARSVDGKEDLIWKLLSKAQEKFGKNKSRSFQLFGSPPGQRDLLFKDSALGFLRIPSKVDSALYLGSRYLTTLKNLRETAEEVKARYTRVVWCAVGPEEQKKCQQWSQQSGQNVTCATASTTDDCIVLVLKGEADALNLDGGYIYTAGKCGLVPVLAENRKSSKHSSLDCVLRPTEGYLAVAVVKKANEGLTWNSLKDKKSCHTAVDRTAGWNIPMGLIVNQTGSCAFDEFFSQSCAPGADPKSRLCALCAGDDQGLDKCVPNSKEKYYGYTGAFRCLAEDVGDVAFVKNDTVWENTNGESTADWAKNLNREDFRLLCLDGTRKPVTEAQSCHLAVAPNHAVVSRSDRAAHVKQVLLHQQALFGKNGKNCPDKFCLFKSETKNLLFNDNTECLAKLGGRPTYEEYLGTEYVTAIANLKKCSTSPLLEACAFLTR

For the first test, the target named is T1, DC-SIGN on Raji-DC-SIGN cells. Description: gp120 bead adhesion assay, Raji-DC-SIGN cells. It is filed as cell-based. The settings on record: major milk proteins at 1/20 dilution of physiological concentration in human milk. The protocol:
(§1) gp120 bead adhesion assay. Beads were prepared as previously described (Geijtenbeek et al, 2000 a), in short, streptavidin was covalently coupled to Carboxylate-modified TransFluoSpheres (488/645 nm, 1.0 μm; molecular probes). The steptavidin-beads were incubated with biotinylated F(ab′)2 fragment goat-anti-human IgG (6 μg/ml; Jackson Immunoresearch) and subsequently incubated overnight with gp120-Fc chimera. Fifty thousand cells, Raji-DC-SIGN cells, immature DCs or Raji-L-SIGN cells, were pre-incubated with human milk or milk compounds, AZN-D1 (Geijtenbeek et al, 2000 a), AZN-D2 (Halary et al, 2002), EGTA or mannan for 30 minutes at RT. The ligand-coated beads (20 beads/cell) were added to the pre-incubated cells and incubated for 30 minutes at 37° C. after which the cells were washed with TSM containing 0.5% BSA. After washing, the cells were resuspended in 100 μl TSM-BSA buffer and the adhesion was measured by flow cytometry (BD Biosciences).
(§2) gp120 bead adhesion assay. Beads were prepared as previously described (Geijtenbeek et al, 2000 a), in short, streptavidin was covalently coupled to Carboxylate-modified TransFluoSpheres (488/645 nm, 1.0 μm; molecular probes). The steptavidin-beads were incubated with biotinylated F(ab′)2 fragment goat-anti-human IgG (6 μg/ml; Jackson Immunoresearch) and subsequently incubated overnight with the gp120-Fc chimera. Fifty thousand cells, Raji-DC-SIGN cells or iDCs were pre-incubated with human milk, AZN-D1 (Geijtenbeek et al, 2000 a), AZN-D2 (Halary et al, 2002), EGTA or mannan for 30 minutes at RT. The ligand-coated beads (20 beads/cell) were added to the pre-incubated cells and incubated for 30 minutes at 37° C. after which the cells were washed with TSM (20 mM Tris, 150 mM NaCl, 1 mM CaCl2, 2 mM MgCl2) containing 0.5% BSA. After washing, the cells were resuspended in 100 μl TSM-BSA buffer and the adhesion was measured by flow cytometry (BD Biosciences).
Consider B1, for which the “gp120 binding to Raji-DC-SIGN” value is recorded as “None of the tested human milk compounds could inhibit gp120 binding”.

For B2, the “gp120 binding to Raji-DC-SIGN” value is recorded as “None of the tested human milk compounds could inhibit gp120 binding”.

For B3, the “gp120 binding to Raji-DC-SIGN” value is listed as “None of the tested human milk compounds could inhibit gp120 binding”.

Regarding B4, the “gp120 binding to Raji-DC-SIGN” value is on record as “None of the tested human milk compounds could inhibit gp120 binding”.

The target of another test is T2, DC-SIGN on iDCs. The test can be described thus: gp120 bead adhesion assay, immature DCs. It is filed as cell-based. The settings on record: major milk proteins at 1/20 dilution of physiological concentration in human milk. The protocol: as §1, §2
For the molecule B1, the “gp120 binding to iDCs” value is on record as “None of the tested human milk compounds could inhibit gp120 binding”.

For the molecule B2, the “gp120 binding to iDCs” value is recorded as “None of the tested human milk compounds could inhibit gp120 binding”.

In the case of B3, the “gp120 binding to iDCs” value is reported as “None of the tested human milk compounds could inhibit gp120 binding”.

For the molecule B4, the “gp120 binding to iDCs” value is on record as “None of the tested human milk compounds could inhibit gp120 binding”.

A further test addresses T3, DC-SIGN-Fc. Description: DC-SIGN-Fc binding ELISA. As to conditions: major milk proteins at 1/20 dilution of physiological concentration in human milk. The protocol:
DC-SIGN-Fc binding ELISA. The DC-SIGN-Fc chimera contained the extracellular portion of DC-SIGN (amino acids 64 to 404) fused at the C-terminus to a human immunoglobulin (Ig) G1 Fc fragment and has been previously described (Geijtenbeek et al, 2002). Human milk or human milk compounds were diluted in 0.2M NaHCO3, coated on ELISA plates (maxisorb plate; Nunc) and incubated overnight at 4° C. or 2 hours at 37° C. This was followed by blocking with TSM containing 1% BSA for 30 minutes at 37° C. before addition of soluble DC-SIGN-Fc (5 μg/ml) for 2 hours at RT, the binding was determined by incubation of a peroxidase labeled anti-IgG1 antibody for 30 minutes at RT. DC-SIGN-Fc binding specificity was determined by pre-incubation of the DC-SIGN-FC with either 50 μg/ml DC-SIGN specific mouse antibody AZN-D1 (Geijtenbeek et al, 2000 a) or 10 mM EGTA. Single-cycle-replication transmission assay. The assay was performed as previously described (Groot et al, 2005). In short mDCs and iDCs were incubated in a 96-well-plate (35−50×10^3 DC/well) with human milk for 30 minutes at 37° C. before addition of the virus (5 ng p24/well), which was incubated for 2 hours at 37° C. The DCs were washed twice with PBS before addition of 50×10^3 LuSIV cells. After 24 hours, LuSIV cells were harvested and resuspended in 50 μl lysis buffer (25 mM Tris-Cl 7.8, 2 mM DTT, 2 mM CDTA, 10% glycerol, 1% Triton X100). The cells were then incubated for 45 minutes at room temperature while shaking, followed by 10 minutes centrifugation at 3200×g. The supernatant was transferred to a white-solid 96 well plate (Corning Costar), and 150 μl of lucibuffer (100 μg/ml BSA, 6.6 mM ATP, 15 mM MgSO4, 25 mM glycylglycine) was added. 100 μl of DE(−)Luciferin (Roche Diagnostics GmbH) was injected per well (0.28 mg/ml lucibuffer excluding ATP). 50×10^3 LuSIV cells grown without DC or HIV-1 were used to obtain the background luciferase value.
DC-SIGN-Fc binding ELISA. The DC-SIGN-Fc chimera contained the extracellular portion of DC-SIGN (amino acids 64 to 404) fused at the C-terminus to a human immunoglobulin (Ig) G1 Fc fragment which has been previously described (Geijtenbeek et al, 2002). Human milk or BSSL were diluted in 0.2 M NaHCO3, coated on ELISA plates (maxisorb plate; Nunc) and incubated overnight at 4° C. or 2 hours at 37° C. This was followed by blocking with TSM containing 1% BSA for 30 minutes at 37° C. before addition of soluble DC-SIGN-Fc (5 μg/ml) for 2 hours at RT, the binding was determined by incubation of a peroxidase labeled anti-IgG1 antibody for 30 minutes at RT. DC-SIGN-Fc binding specificity was determined by pre-incubation of the DC-SIGN-Fc with either 50 μg/ml DC-SIGN specific mouse antibody AZN-D1 (Geijtenbeek et al, 2000 a) or 10 mM EGTA.
(In general: ELISA stands for enzyme-linked immunosorbent assay.)
With B1, the “DC-SIGN-Fc binding to coated milk compound” value (“DC-SIGN-Fc binding” for short) is recorded as “showed no binding”.

As for B2, the “DC-SIGN-Fc binding” value is given as “showed no binding”.

Consider B3, for which the “DC-SIGN-Fc binding” value is “showed no binding”.

As for B4, the “DC-SIGN-Fc binding” value was “showed no binding”.

The target in a further test is T4, DC-SIGN.
Experiment: not given
The settings on record: literature; cited from earlier work.
Take B5: the “previously shown DC-SIGN binding” value is “bind DC-SIGN and prevent viral transfer”.
